Where “and” joins values, the source holds several entries; their conditions need not be identical. Equal entries are not always repeated.

B1: Azurin, P00282 (parent)
chain: MLRKLAAVSLLSLLSAPLLAAECSVDIQGNDQMQFNTNAITVDKSCKQFTVNLSHPGNLPKNVMGHNWVLSTAADMQGVVTDGMASGLDKDYLKPDDSRVIAHTKLIGSGEKDSVTFDVSKLKEGEQYMFFCTFPGHSALMKGTLTLK

This series covers variants of B1. Conditions: Pseudomonas aeruginosa (strain ATCC 15692 / DSM 22644 / CIP 104116 / JCM 14847 / LMG 12228 / 1C / PRS 101 / PAO1); pH 7.2; 20 °C; GdnHCl; CD + Fluorescence; Tris-HCl 50 mM; reversible: yes; structure 5AZU; whole UniProt chain shown.

Take MLRKLAAVSLLSLLSAPLLAAECSVDIQGNDQMQFNTNAITVDKSCKQFTVNLSHPGNLPKNVMGHNWVLSTAADMQGVVTDGMASGLDKDYLKPDDSRVIAHTKLIGSGEKDSVTFDVSKLKEGEQYMSFCTFPGHSALMKGTLTLK: the “ddG of mutation (higher = less stable)” value is 4.6 kcal/mol and 3.7 kcal/mol; the denaturant m value is 3.6 kcal/mol/M and 3.2 kcal/mol/M; the “denaturant midpoint (higher = more stable)” value was 1.24 M and 0.86 M; the unfolding free energy is 4.8 kcal/mol and 2.7 kcal/mol.
On to MLRKLAAVSLLSLLSAPLLAAECSVDSQGNDQMQFNTNAITVDKSCKQFTVNLSHPGNLPKNVMGHNWVLSTAADMQGVVTDGMASGLDKDYLKPDDSRVIAHTKLIGSGEKDSVTFDVSKLKEGEQYMFFCTFPGHSALMKGTLTLK, for which the “ddG of mutation (higher = less stable)” value is 3.6 kcal/mol and 3 kcal/mol; the denaturant m value was 3.6 kcal/mol/M and 3.4 kcal/mol/M; the “denaturant midpoint (higher = more stable)” value is 1.61 M and 1.02 M; the unfolding free energy was 5.8 kcal/mol and 3.4 kcal/mol.

Values taken from FireProtDB (doi:10.1046/j.1432-1327.1999.00751.x).
